Measurements published in the DeepSol protein solubility set.

Assay: soluble on expression in E. coli; label from the status in PepcDB or PDB records

Sequence | soluble on expression in E. coli
MSLSKHHIIVKSGSTLEQLAKAKTFAFDKTGTLTQNQLVIQDVLPENGFDKETIQSYAASLEQQSDHIIANSLVQGTDKNLIQAVSNLQESTGNGVSGTVDGKNVMVGKLSYVAPDANVNKAKTTAVYVSVDGKYAGCITFKDRLRPETPQTLARLRKQGAKHIMMLTGDNKDVAQAIADVAGVDDVRASLLPAQKIEAIKNVAPENRPVVMTGDGINDAPSLTAADVGIAMGAKGASAASESADAVIMVNDLSKINDAVAIAKHTMKVAEGHHHHHH | soluble
GPGSMARNKIALIGSGMIGGTLAHLAGLKELGDVVLFDIAEGTPQGKGLDIAESSPVDGFDAKFTGANDYAAIEGADVVIVTAGVPRKPGMSRDDLLGINLKVMEQVGAGIKKYAPEAFVICITNPLDAMVWALQKFSGLPAHKVVGMAGVLDSARFRYFLSEEFNVSVEDVTVFVLGGHGDSMVPLARYSTVAGIPLPDLVKMGWTSQDKLDKIIQRTRDGGAEIVGLLKTGSAFYAPAASAIQMAESYLKDKKRVLPVAAQLSGQYGVKDMYVGVPTVIGANGVERIIEIDLDKDEKAQFDKSVASVAGLCEACIGIAPSLK | soluble
MTGSACFFSTDFLFGRYGPTVCIIPSENIPDKANTMIRPDFQEYLPSYYFSSVNPHTVYPKLQCRLKAETCIIGGGLSGLCTALPLAEHGHEAVVLEAARIGFGASGRSGGQVISDYACGMGEIEKQVGLEQAQWFWQQSLQAVELVDERVRKHAIDCDWQRGYATVAVRPQHWEELQQWHEHAQRHYGASHYQLWDKAELKQQLDSDMYQGAQFDPLSGHLHPLNYTLGVASAAAEAGAQIFEQSPMTRIEPYQNGWLVYTPEGSVECKNVVYAVNTYVGLNPIFRPLERKAIAVSTFIIATEPLGARTKGLIRNNMAVCDNRHILDYYRLSADGRLLFGGKDNEFIDNPARMTELVRQDMLKVFPQLADVRIEYSWGGECDITANLVPHFGRLTSNVFYTQGYSGHGMAITGIAGLAVAEAILGDECRLKPFEQLCQPNIILQPFLRKLGSFLGSKYYQWKDSRLEHHHHHH | not soluble
MALKTDIRGMIWRYPDYFIVGREQCREFARAVKCDHPAFFSEEAAADLGYDALVAPLTFVTILAKYVQLDFFRHVDVGMETMQIVQVDQRFVFHKPVLAGDKLWARMDIHSVDERFGADIVVTRNLCTNDDGELVMEAYTTLMGQQGDGSARLKWDKESGQVIRTALEHHHHHH | not soluble
MGKNRNKNKDKDPYIGPAKTGRNDSDSDDSESSAYTYNEDIQSIMGDVEDMNDVYDQLVDNLDRAQDKNSTTRIDGLHRVNLALTAKPAPEFINRNKETIMAVCSRMANKPDSEAQFLARLVGLVAVQAGEEISEMIAEPMSQMRTILMDASRCVFLRTACATSLAIVTRIACSEDEEVTANAKACRFAWAHTKVSGSANDIGHAKLTINDAVADQPKIVTLLSSNQLEVRLAAAETLAFLHEFMQDARPGFRFPNKEHVLSLLDQMVNDSSKKKTKKDKRAQRYAVRDIRAFIADEDDAPEVNVKIGQQTLSLDSCAIKIFYDTTCDLLHGGLAQQLLHNEVLRDVFDLGPIALEPAESANKQSRLAVHEAADKHRNQVRGKQRDKRSTVY | not soluble
MDCCEERGVARHKGLSQVGTPGCPRWSQAVSCRCSAYREAAVTAVQMPLTPGYGETPLPHDELAALLPEVVEVLDKPITRADVYDLEQGLQDQVFDLLMPTAVEGSLSLDELLSDHFVRDLHARMFGPV | soluble
MKLSPSMLDKLLRLGYSKLFADRYFQLWGERAIRIAEAMEKPLPRCFRVNTLKISVQDLVKRLNKKGFQFKRVPWAKEGFCLTREPFSITSTPEFLTGLIYIQEASSMYPPVALDPKPGEIVADMAAAPGGKTSYLAQLMRNDGVIYAFDVDENRLRETRLNLSRLGVLNVILFHSSSLHIGELNVEFDKILLDAPCTGSGTIHKNPERKWNRTMDDIKFCQGLQMRLLEKGLEVLKPGGILVYSTCSLEPEENEFVIQWALDNFDVELLPLKYGEPALTNPFGIELSEEIKNARRLYPDVHETSGFFIAKIRKL | soluble
QSSAQRHADLNTLIGHTEPVANIAQDLYSSLSLADTEASASFVRGTNDNYVEYIQKAALLVTQTDGDIANIATQLPVYTGLVETARANNRQGHPVGVAYMSEASTLMQESILPAASQLYLNAAEQVSTAQRNLARPQ | not soluble
MQRLEESTSCRGVGDMRKAIIVGVGMTPVGEHWRSSLRDLAVEAILNAMDDAGIDKVDSLYVGNMASGSFVEQENLGALIADWAGLGNIPAVKIEAACASGGAAVQEGAKAVLSGLEDVVLVVGVEKMTDAWPSDATRYLGYAADAEWELFHGASFVALNALIMRLYMNTYGYKEEDLALFAVNAHANGAKNPYAMFKKPITVETVMKSPYIADPLKLFDASPVCDGAAAVIITTPEKAKELGIPKDKWIEIAGMGRAIDTINLANREDFLTLKAATIAAERAYKMAGVKPEDVDFFEVHDAFTVMAALSLEALGVAKKGEGAKLAIEGQIAIDGDYPIQTMGGLKARGHPVGATGVYQVVEAVLQLRGEAPDGIQVPDAEVGLTQNIGGTGSNITVTVLRRV | not soluble
MKVVQRKIKKSGKDRKRIGRGGSAYILDKRRITAVQNMKREAEKEKLRERFAAAANMPKDVVLGASVVTVIGNGEISIENYRGILEYTGELIRVQTKKGQIQVHGKGLQIEYYLNDEMKITGKIHTLEYEMLEHHHHHH | soluble
MAHHHHHHMPPPLRSKAESVQREEVCQMVEPKRSMSVRDTLYGQLEFPPVIRILTNSPVVQRLRDLKQLGNSFYVYPGATHSRFEHSLGVCYLGMELYRSIVDGHREEHRDFGVPEIANLTREAAQKDMHCIGIAGLCHDLGHGPLSHLFESFVRSSARPEEVQLRKWSHEQASIMLLRKMWLENETELAELGFTESDLRYVELLINGLAPGKAWPDNVGRPKWARFTTEIIANKRSGLDVDKIDYIQRDSVACLGTPTFVSMSRLFQGARVVVGDNDETSIGYPDKLDGVIEEIFLARSHLHRIVYQHRVTKVIDLMTLDALRAAGDVFEVSNGKDGVMPLRSCVLHPDFYVHASDWIVLAILHGSNRTMAESWGSGASAEHRREKLAEACRILQRIHSRHLYTTIGSYRHSEQTLINAGRLNSVEGSSQEVKREVMIHELLSDIEVTNLDLSVKLREWSRQHNGMTAMEILQAEITQTAGDMDKKHNPVSATYFFNPRQSTHCRVEPHFSCNVTTTLFVKTGPVSSLVVVCRMPLTPQEKESLRVSFTSVADRLGKTDASSFSCTPMSQRGRAAESSQQAASVARDESAATPNHSLAGGERLTSSVSGGYPAAKRLRLDLDTQRSRRDDFDVDQSSEGVLQNDATTSSLELVTAAGYGQVGEKGQDDDDGEETDILSFS | not soluble
MSVKKLENGQYQVDVSFGFDPITGERIRTRPVASTRKEALELEAKLRREFQEERARKSRSVSFPTLISIYLASCEIDSKPNYYQNQKYIINKHISDYFLKSDIQKITHREITDFRKHLMETGLSNKSVNNIMTSLSKIFDTAVHEEILKRNPCDNVKRLPLTRKKMKFWRPEEFKKFISLIPQDQLLFKTFYTVAFLTGLRCGEMLALQWKDIDKILLEIDVHKSCTWLDGQFVVTTPKTKNSIRRVSINKKLLKLLERWKEAQEELFNELGIRHSHDTYIFQYKDTPSRKDIFSRKIKYFCKDSDLTPIRLHDFRHSHVALLIHQGEDYITIKERLGHGSVKTTIDVYGHLYPNKQKEMADKLDDLL | not soluble
KVWWTLPYGPHEDEKNLTLEDWRDRVLDSTREAVAIRQRAAVDVGVLLSGGVDSSMLVGLLREVGVEDLSTFSIGFQDAGGERGDEFQYSDLIAKHYGTRHHQLRIQESEIIEQLPAAFRAMSEPMVSHDCIAFYLLSREVAKHCKVVQSGQGADELFAGYHWYPQVDGASDPVAAYRYAFVDRSYAEYADTVQPKWRTANDAAGDFVRDHFAQPGASAAVDKALRLDSTVMLVDDPVKRVDNMTMAWGLEARTPFLDYRLVELSARIPGKFKLPDGGKQVLKEAARLVIPSEVIDRKKGYFPVPGLKHLQGDTLNWVRELLTDPSQDRGLFNPTMVDKLLTNPEGQLTPLRGSKLWQLAALNLWLSEQ | not soluble
SAAVALRDSAQGTVTFEDVAVNFSQEEWSLLSEAQRCLYHDVMLENLTLISSLGCWYGAKDETPSKQTLSIQQESPLRTHWTGVCTKKVHLWGMCGPLLGDILHQGTQHNQKLNGFGAYEKKLDDDANHHQDQKQHIGEKSYRSNAKENE | soluble
SAQEKMELDLELPPGTGGSPAEGGGSGGGGGLRRSNSAPLIHGLSDTSPVFQAEAPSARRNSTTFPSRHGLLLPASPVRMHSSRLHQIKQEEGMDLINRETVHEREVQTAMQISHSWEESFSLSDNDVEKSASPKRIDFIPVSPAPSPTRGIGKQCFSPSLQSFVSSNGLPPSPIPSPTTRFTTRRSQSPINCIRPSVLGPLKRKCEMETEYQPKRFFQGITNMLSSDVAQLSDPGVCVSSDTLDGNSSSAGSSCNSPAKVSTTTDSPVSPAQAASPFIPLDELSSK | soluble
SGDAASHEERMNNYRKRVGRLFMEQKAAQPDAVKLPSGLVFQRIARGSGKRAPAIDDKCEVHYTGRLRDGTVFDSSRERGKPTTFRPNEVIKGWTEALQLMREGDRWRLFIPYDLAYGVTGGGGMIPPYSPLEFDVELISIKDGGKGRTAEEVDEILRKAEEDREDM | soluble
MKRKTKIVSTIGPASESVDKLVQLMEAGMNVARLNFSHGDHEEHGRRIANIREAAKRTGRTVAILLDTKGPEIRTHNMENGAIELKEGSKLVISMSEVLGTPEKISVTYPSLIDDVSVGAKILLDDGLISLEVNAVDKQAGEIVTTVLNGGVLKNKKGVNVPGVKVNLPGITEKDRADILFGIRQGIDFIAASFVRRASDVLEIRELLEAHDALHIQIIAKIENEEGVANIDEILEAADGLMVARGDLGVEIPAEEVPLIQKLLIKKSNMLGKPVITATQMLDSMQRNPRPTRAEASDVANAIFDGTDAVMLSGETAAGQYPVEAVKTMHQIALRTEQALEHRDILSQRTKESQTTITDAIGQSVAHTALNLDVAAIVTPTVSGKTPQMVAKYRPKAPIIAVTSNEAVSRRLALVWGVYTKEAPHVNTTDEMLDVAVDAAVRSGLVKHGDLVVITAGVPVGETGSTNLMKVHVISDLLAKGQGIGRKSAFGKAVVAKTAEEARQKMVDGGILVTVSTDADMMPAIEKAAAIITEEGGLTSHAAVVGLSLGIPVIVGVENATTLFKDGQEITVDGGFGAVYRGHASVL | soluble
MGSDKIHHHHHHMSKAYSSNLTQDQWELLEPLIPVGKTGGRPRVVEMWQVINAIFYVLTQGCTWRNLPGDLPNWQTVYTYFRNWRKDGTWVSIHDQLRDWERVNNERAVSPTEAIIDSQSVKTAAMVTQQVGYDAGKKVKGRKRFLTVDTLGLVLPVLVSAASVDERSGGKLLLQKVKQMGDKVSRLNLIWVDGGYDGNPFMQWVMDFYRWVVQVVLRPRERKGFVLLPKRWVVERTFGWLTGCRRLNKDYELLPETAENFIYLAMIRIMVRRLA | not soluble
MPSSNSVVPPFDARNLEIKTKSIEQTLIPLVTQITTLVNYKESYMASGKPKSERAMRAALKIGSAVEAAIERFVCVGETIADENADIQPEMYDACTEARLAGASMANLSCACNDDPNSVVDKAVLVRASRQLLSSVTRVLLLADRVLVKQVLRAEDKIAFSLSRLESTRSFNDFVKVFAVFGGEMVELAHRSGDRQHDLKSEKRKAQMSIARTSLERLTMLLLTASKTYLRHPDCDSALQCRDGVFYQMKLSLELIAICVCDGILTTEKSRYIQDEPDMPIDIALQLTANAAIKQLTEMLEMIRMTVRVGAGVRERIVSALDALCQLTQDFTDSAYTPHHQREQILDFLEECRFEMTNLIQPDENEQLAASGLEVTVERLNRRLKDLSKQLQIVAMEQISEVLRANEDQVLLSSMKACAVSGDIDGVEKYMHKFREHADHMQEVCRLLHHISITDALHVHTGHVERNMRALAPLTILAGRTLCVHPSSRIARENLEVFCDTWGQAVNDLSRVAKESDVAANGRVAAEKQAYMSLPRPGVSKSSCRRSVPKHDAASSSSSNELLPNGGRHPKQVGIAPTRVVSQTGDEASSDEEQVDKQEIEAFQYRISLIIDDLQSDVEGGTHGR | not soluble
